B1: TPR t1 (parent)
chain: GACCAAUCUGCCCUCAGAGCUCGAGAACAUCUUCGGAUGCAGAGGAGGCAGGCUUCGGUGGCGCGAUAGCGCCAACGUCCUCAACCUCCAAUGCAUCCCACCACAUGAUGAUGCCUGAAGAGCCUUGGUUUUUUG

Variants of: B1
Assay: polymerase ribozyme fitness, log enrichment relative to wild type (log ratio); higher = more active; in vitro selection for triplet polymerase activity
Outline: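 For each subunit of a heterodimeric triplet polymerase ribozyme, a mutant library was built by PCR and transcribed, then taken through a single in vitro selection round in triplicate. Selection involved annealing to a biotinylated primer, the partner subunit and triplets, incubation frozen at −7 °C, gel excision of extended constructs, capture on streptavidin beads and RT-PCR. Genotypes were retained after Illumina sequencing of inputs and outputs only with ≥10 input reads and ≥1 read in each output. Fitness is defined as the logarithm of a genotype's enrichment relative to wild-type enrichment, using inverse-variance-weighted averages across replicates, with the logarithm taken to base 2.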

In order of falling “polymerase ribozyme fitness (log ratio)” value:
1. GACCAAUCUGCCCUCAGAGCUCGAGAACUUCUUCGGAUGCAGAGGAGGCAGGCUUCGAUGGCGCGAUAGCCCCAACGUCCUCAACCUCCAAUGCAUCCCACCACAUGAUGAAGCCUGAAGAGCCUUGGUUUUUUG  -1.32
2. GACCAAUCUGCCCUCAGAGCUCGAGAACUUCUUCGGAUGCAGAGGAGGCAGGCAUCGGUGGCGCGAUAGCCCCAACGUCCUCAACCUCCAAUGCAUCCCACCACAUGAUGAUGCCUGAAGAGCCUUGGUUUUUUG  -1.61
3. GACCAAUCUGCCCUCAGAGCUCGAGAACUUCUUCGGAUGCAGAGGAGGCAGGCUUCGGUGGCGCGAUAGCGCCAACUUCCUCAACCUCCAAUGCAUCCCACCACAUGAUGAUGCCUGAAGAGCCUUGGUUUUUUG  -1.77
4. GACCAAUCUGCCCUCAGAGCUCGAGAACUUCUUCGGAUGCAGAGGAGGCAGGCUUCGGUGGCGCGAUAGCGCCAACGACCUCAACCUCCAAUGCAUCCCACCACAUGAUGAUGCCUGAAGAGCCUUGGUUUUUUG  -1.8
5. GACCAAUCUGCCCUCAGAGCUCGAGAACUUCUUCGGAUGCAGAGGAGGCAGGCUUCGGUGGCGCGAUAGCGCCAACGUCCAAAACCGCCAAUGCAUCCCACCACAUGAUGAAGCCUGAAGAGCCUUGGUUUUUUG  -1.91
6. GACCAAUCUGCCCUCAGAGCUCGAGAACUUCUUCGGAUGCAGAGGACGCAGGCUUCGGUGGCGCGAUAGCGCCAACGUCCUCAACCUCCAAUGCAUCCCACCACAUGAUGAUGCCUGAGGAGCCUUGGUUUUUUG  -2.66
7. GACCAAUCUGCCCUCAGAGCUCGAGAACUUCUUCGGAUGCAGAGGAGGCAGGCUUCGGUGGCGCGAUAGCGCCAACGUCCUCAACCUCCAAUGCAGCCCACCACAUGAUGAUGCCUGAAGAGCCUUGGUCUUUUG  -2.74
8. GACCAAUCUGCCCUCAGAGCUCGAGAACUUCUUCGGAUGCAGAGGAGGCAGGCUUCGGUGGCGCGAUAGCGCCAACGUCCUCAACCUCCAAUGCAUCCCACCACAUGAUGAUCCCUGAAGAGCCUUGGUUUUUUG  -2.87
9. GACCAAUCUGCCCUCAGAGCUCGAGAACUUCUUCGGAUGCAGAGGAGUCAGGCUUCGGUGGCGCGAUAGCGGCAACGUCCUCAACCUCCAAUGCAUCCCACCACAUGAUGAUGCCUGAAAAGCCUUGGUUUUUUG  -3.12
10. GACCAAUCUGCCCUCAGAGCUCGAGAACUUCUUCGGAUGCAGAGGAGGCAGGCUUCGGUGGCGCGAUAGCGCCAACGUCCUCAACCGCCCAUGCAUCCCACCACAUGAUGAUGCCUGAAGAGCCUUGGUUUUUUG  -3.17
11. GACCAAUCUGCCCUCAGAGCUCGAGAACUUCUUCGGAUGCAGAGGAGGCAGCCUUCGGUGGCGCGAUAGCGCGAACGUCCUCAACCUCCAAUGCAUCCCACCACAUGAUGAUGCCUGAAGAGCCUUGGUUUCUUU  -3.19
12. GACCAAUCUGCCCUCAGAGCUCGAGAACUUCUUCGGAUGCAGAGGAGGCAGGCUUCGGUGACGCGAUAGCGCCAACGUCCUCAACCUCCAAUGCAUCCCACCACAUGAUGAUGCCUGAAGAGCCUUCGUUUUUUG  -3.2
13. GACCAAUCUGCCCUCAGAGCUCGAGAACUUCUUCGGAUGCAGAGGAGGCAGUCUUCGGUGGCGCGAUAGCGCCAAAGUCCUCAACCUCCAAUGCAUCCCACCACAUGAUGAUGCCUGAAGAGUCUUGGUUUUUUU  -3.34
14. GACCAAUCUGCCCUCAGAGCUCGAGAACUUCUUCGGAUGCAGAGCAGGCAGGCUUCGGUGGCGCGAUAGCGCCAACGUCCUCAACCUCCAAUGCAUCCCACCACAUGAUGAUGCAUGAAGAGCCUUGGUUUUAUG  -3.42
15. GACCAAUCUGCCCUCAGAGCUCGAGAACUUCUUCGGAUGCAGAGGAGGCAGGCUUCGGUGGCGCGAUACCGCCAACGUCCGCAACCGCCAAUGCAUCCCACCACAUGAUGAUGCCUGAAGAGCCUUGGUUUUUUG  -3.43
16. GACCAAUCUGCCCUCAGAGCUCGAGAACUUCUUCGGAUGCAGAUGAGGCAGGCUUCGGUGGCGCGAUAGCGCCAACGUCCUCAACCUCCAAUGCAUCCCACCACAUGAUGGUGCCUGAAGAGCGUUGGUUUUUUG  -3.58
17. GACCAAUCUGCCCUCAGAGCUCGAGAACUUCUUCGGAUGCAGAGGAGGCAGGCUUCGGUAGCGCGAUAGCGCCAACGCCCUCAACCUCCAAUGCAUCCCACAACAUGAUGACGCCUGAAGAGCCUUGGUUUUUUG  -3.58
18. GACCAAUCUGCCCUCAGAGCUCGAGAACUUCUUCGGAUGCAGAGGAGGCAGGCUUCGGUGGCGCGAUAGCGCCAACGUCCUCAACCUCCAAUGCAUCCCACCACAUGACGAUGCCUGAAGAGCAUUGGUUUUUUG  -3.97
19. GACCAAUCUGCCCUCAGAGCUCGAGAACUUCUUCGGAUGCAGAGGACGCAGGCUUCGGUGGCGCGAUAGCGCCAACGUCCUCAAUCUCCAAUGCAUCCCACCACAUGAUGAUGCCUGAAGAGUCUUGGUUUUUUG  -4.09
20. GACCAAUCUGCCCUCAGAGCUCGAGAACUUCUUCGGAUGCAGAUAAGGCAGGCUUCGGUGGCGCGAUAGCGCCAACGUCCUCAACCUCCAAUGCAUCCCACCACAUGAUGAUGCCUGAAGAGCCUUGGUUUUUUG  -4.25
21. GACCAAUCUGCCCUCAGAGCUCGAGAACUUCUUCGGAUGCAGAGGAGGCAGGCUUCGGUCGCGCGAUAGCGCCAACGUCCUCAACCUCAAAUGCAUCCCACCACAUGAUAAUGCCUGAAGAGCCUUGGUUUUUUG  -5.77

— the RNAGym collection of RNA variant scans (doi:10.1073/pnas.2313332121)
